Assay results: US20150344570A1 (published 2015)

T1: FcγRIIb extracellular domain with C-terminal His tag (human, UniProt P31994 43-217)
T1 construct: extracellular domain; also called 2b; FcgRIIb; not shown: His tag at the C terminus
T1 sequence (looked up): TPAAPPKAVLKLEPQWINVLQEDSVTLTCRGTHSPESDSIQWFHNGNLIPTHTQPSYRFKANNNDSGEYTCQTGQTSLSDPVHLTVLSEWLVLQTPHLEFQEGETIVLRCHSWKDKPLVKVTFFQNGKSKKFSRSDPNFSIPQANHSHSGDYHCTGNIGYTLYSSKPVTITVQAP


How the values were obtained:
[1] = biological target: T1, FcγRIIb extracellular domain with …; assay: SPR (Biacore), relative to GpH7-A5/GpH7-B3/GpL16-k0 = 100
[2] = biological target: T2, FcγRIIIa extracellular domain with C-terminal His tag (human, UniProt P08637 17-208); assay: as above
T2 construct: extracellular domain; also called 3a; FcgRIIIa; not shown: His tag at the C terminus
T2 sequence (P08637 17-208): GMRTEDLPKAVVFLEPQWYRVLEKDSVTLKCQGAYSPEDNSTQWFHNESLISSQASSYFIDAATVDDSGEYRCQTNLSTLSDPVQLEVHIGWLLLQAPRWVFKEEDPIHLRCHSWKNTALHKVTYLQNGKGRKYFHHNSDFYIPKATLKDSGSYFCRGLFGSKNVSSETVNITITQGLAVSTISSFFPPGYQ

Binder | He/Con_2b [1] | He/Con_3a [2]
GpH7-A5/GpH7-B3 variant P238_15Y/GpL16-k0 (antibody, human IgG1, kappa, IgG1, anti-glypican-3; also called He Ab) heavy 1: not shown heavy 2: not shown light: DIVMTQSPLSLPVTPGEPASISCQASESLVHSNRNTYLHWYLQKPGQSPQLLIYKVSNRFSGVPDRFSGSGSGTDFTLKISRVEAEDVGVYYCSQNTHVPPTFGQGTKVEIERTVAAPSVFIFPPSDEQLKSGTASVVCLLNNFYPREAKVQWKVDNALQSGNSQESVTEQDSKDSTYSLSSTLTLSKADYEKHKVYACEVTHQGLSSPVTKSFNRGEC | 218 % (control = 100) | 64.5 % (control = 100)
GpH7-A5/GpH7-B3 variant S239_03V/GpL16-k0 (antibody, human IgG1, kappa, IgG1, anti-glypican-3; also called He Ab) heavy 1: not shown heavy 2: not shown light: DIVMTQSPLSLPVTPGEPASISCQASESLVHSNRNTYLHWYLQKPGQSPQLLIYKVSNRFSGVPDRFSGSGSGTDFTLKISRVEAEDVGVYYCSQNTHVPPTFGQGTKVEIERTVAAPSVFIFPPSDEQLKSGTASVVCLLNNFYPREAKVQWKVDNALQSGNSQESVTEQDSKDSTYSLSSTLTLSKADYEKHKVYACEVTHQGLSSPVTKSFNRGEC | 108 % (control = 100) | 76.6 % (control = 100)
GpH7-A5/GpH7-B3 variant P271_08L/GpL16-k0 (antibody, human IgG1, kappa, IgG1, anti-glypican-3; also called He Ab) heavy 1: not shown heavy 2: not shown light: DIVMTQSPLSLPVTPGEPASISCQASESLVHSNRNTYLHWYLQKPGQSPQLLIYKVSNRFSGVPDRFSGSGSGTDFTLKISRVEAEDVGVYYCSQNTHVPPTFGQGTKVEIERTVAAPSVFIFPPSDEQLKSGTASVVCLLNNFYPREAKVQWKVDNALQSGNSQESVTEQDSKDSTYSLSSTLTLSKADYEKHKVYACEVTHQGLSSPVTKSFNRGEC | 103 % (control = 100) | 71 % (control = 100)
GpH7-A5/GpH7-B3 variant S239_01G/GpL16-k0 (antibody, human IgG1, kappa, IgG1, anti-glypican-3; also called He Ab) heavy 1: not shown heavy 2: not shown light: DIVMTQSPLSLPVTPGEPASISCQASESLVHSNRNTYLHWYLQKPGQSPQLLIYKVSNRFSGVPDRFSGSGSGTDFTLKISRVEAEDVGVYYCSQNTHVPPTFGQGTKVEIERTVAAPSVFIFPPSDEQLKSGTASVVCLLNNFYPREAKVQWKVDNALQSGNSQESVTEQDSKDSTYSLSSTLTLSKADYEKHKVYACEVTHQGLSSPVTKSFNRGEC | 144 % (control = 100) | 76.2 % (control = 100)
GpH7-A5/GpH7-B3 variant P238_16H/GpL16-k0 (antibody, human IgG1, kappa, IgG1, anti-glypican-3; also called He Ab) heavy 1: not shown heavy 2: not shown light: DIVMTQSPLSLPVTPGEPASISCQASESLVHSNRNTYLHWYLQKPGQSPQLLIYKVSNRFSGVPDRFSGSGSGTDFTLKISRVEAEDVGVYYCSQNTHVPPTFGQGTKVEIERTVAAPSVFIFPPSDEQLKSGTASVVCLLNNFYPREAKVQWKVDNALQSGNSQESVTEQDSKDSTYSLSSTLTLSKADYEKHKVYACEVTHQGLSSPVTKSFNRGEC | 115 % (control = 100) | 30.7 % (control = 100)
GpH7-A5/GpH7-B3 variant S239_05P/GpL16-k0 (antibody, human IgG1, kappa, IgG1, anti-glypican-3; also called He Ab) heavy 1: not shown heavy 2: not shown light: DIVMTQSPLSLPVTPGEPASISCQASESLVHSNRNTYLHWYLQKPGQSPQLLIYKVSNRFSGVPDRFSGSGSGTDFTLKISRVEAEDVGVYYCSQNTHVPPTFGQGTKVEIERTVAAPSVFIFPPSDEQLKSGTASVVCLLNNFYPREAKVQWKVDNALQSGNSQESVTEQDSKDSTYSLSSTLTLSKADYEKHKVYACEVTHQGLSSPVTKSFNRGEC | 102 % (control = 100) | 14.9 % (control = 100)
GpH7-A5/GpH7-B3 variant S239_06M/GpL16-k0 (antibody, human IgG1, kappa, IgG1, anti-glypican-3; also called He Ab) heavy 1: not shown heavy 2: not shown light: DIVMTQSPLSLPVTPGEPASISCQASESLVHSNRNTYLHWYLQKPGQSPQLLIYKVSNRFSGVPDRFSGSGSGTDFTLKISRVEAEDVGVYYCSQNTHVPPTFGQGTKVEIERTVAAPSVFIFPPSDEQLKSGTASVVCLLNNFYPREAKVQWKVDNALQSGNSQESVTEQDSKDSTYSLSSTLTLSKADYEKHKVYACEVTHQGLSSPVTKSFNRGEC | 101 % (control = 100) | 78.2 % (control = 100)
GpH7-A5/GpH7-B3 variant P271_09D/GpL16-k0 (antibody, human IgG1, kappa, IgG1, anti-glypican-3; also called He Ab) heavy 1: not shown heavy 2: not shown light: DIVMTQSPLSLPVTPGEPASISCQASESLVHSNRNTYLHWYLQKPGQSPQLLIYKVSNRFSGVPDRFSGSGSGTDFTLKISRVEAEDVGVYYCSQNTHVPPTFGQGTKVEIERTVAAPSVFIFPPSDEQLKSGTASVVCLLNNFYPREAKVQWKVDNALQSGNSQESVTEQDSKDSTYSLSSTLTLSKADYEKHKVYACEVTHQGLSSPVTKSFNRGEC | 120 % (control = 100) | 93.1 % (control = 100)
GpH7-A5/GpH7-B3 variant P238_20W/GpL16-k0 (antibody, human IgG1, kappa, IgG1, anti-glypican-3; also called He Ab) heavy 1: not shown heavy 2: not shown light: DIVMTQSPLSLPVTPGEPASISCQASESLVHSNRNTYLHWYLQKPGQSPQLLIYKVSNRFSGVPDRFSGSGSGTDFTLKISRVEAEDVGVYYCSQNTHVPPTFGQGTKVEIERTVAAPSVFIFPPSDEQLKSGTASVVCLLNNFYPREAKVQWKVDNALQSGNSQESVTEQDSKDSTYSLSSTLTLSKADYEKHKVYACEVTHQGLSSPVTKSFNRGEC | 123 % (control = 100) | 49.7 % (control = 100)
GpH7-A5/GpH7-B3 variant P238_19Q/GpL16-k0 (antibody, human IgG1, kappa, IgG1, anti-glypican-3; also called He Ab) heavy 1: not shown heavy 2: not shown light: DIVMTQSPLSLPVTPGEPASISCQASESLVHSNRNTYLHWYLQKPGQSPQLLIYKVSNRFSGVPDRFSGSGSGTDFTLKISRVEAEDVGVYYCSQNTHVPPTFGQGTKVEIERTVAAPSVFIFPPSDEQLKSGTASVVCLLNNFYPREAKVQWKVDNALQSGNSQESVTEQDSKDSTYSLSSTLTLSKADYEKHKVYACEVTHQGLSSPVTKSFNRGEC | 110 % (control = 100) | 55.8 % (control = 100)
GpH7-A5/GpH7-B3 variant P271_10E/GpL16-k0 (antibody, human IgG1, kappa, IgG1, anti-glypican-3; also called He Ab) heavy 1: not shown heavy 2: not shown light: DIVMTQSPLSLPVTPGEPASISCQASESLVHSNRNTYLHWYLQKPGQSPQLLIYKVSNRFSGVPDRFSGSGSGTDFTLKISRVEAEDVGVYYCSQNTHVPPTFGQGTKVEIERTVAAPSVFIFPPSDEQLKSGTASVVCLLNNFYPREAKVQWKVDNALQSGNSQESVTEQDSKDSTYSLSSTLTLSKADYEKHKVYACEVTHQGLSSPVTKSFNRGEC | 109 % (control = 100) | 93.6 % (control = 100)

Second part, the binder after the results:

He/Con_2b [1] | He/Con_3a [2] | Binder
379 % (control = 100) | 91.9 % (control = 100) | GpH7-A5/GpH7-B3 variant S267_10E/GpL16-k0 (antibody, human IgG1, kappa, IgG1, anti-glypican-3; also called He Ab) heavy 1: not shown heavy 2: not shown light: DIVMTQSPLSLPVTPGEPASISCQASESLVHSNRNTYLHWYLQKPGQSPQLLIYKVSNRFSGVPDRFSGSGSGTDFTLKISRVEAEDVGVYYCSQNTHVPPTFGQGTKVEIERTVAAPSVFIFPPSDEQLKSGTASVVCLLNNFYPREAKVQWKVDNALQSGNSQESVTEQDSKDSTYSLSSTLTLSKADYEKHKVYACEVTHQGLSSPVTKSFNRGEC
104 % (control = 100) | 45.6 % (control = 100) | GpH7-A5/GpH7-B3 variant S267_14T/GpL16-k0 (antibody, human IgG1, kappa, IgG1, anti-glypican-3; also called He Ab) heavy 1: not shown heavy 2: not shown light: DIVMTQSPLSLPVTPGEPASISCQASESLVHSNRNTYLHWYLQKPGQSPQLLIYKVSNRFSGVPDRFSGSGSGTDFTLKISRVEAEDVGVYYCSQNTHVPPTFGQGTKVEIERTVAAPSVFIFPPSDEQLKSGTASVVCLLNNFYPREAKVQWKVDNALQSGNSQESVTEQDSKDSTYSLSSTLTLSKADYEKHKVYACEVTHQGLSSPVTKSFNRGEC
107 % (control = 100) | 79.3 % (control = 100) | GpH7-A5/GpH7-B3 variant S239_07I/GpL16-k0 (antibody, human IgG1, kappa, IgG1, anti-glypican-3; also called He Ab) heavy 1: not shown heavy 2: not shown light: DIVMTQSPLSLPVTPGEPASISCQASESLVHSNRNTYLHWYLQKPGQSPQLLIYKVSNRFSGVPDRFSGSGSGTDFTLKISRVEAEDVGVYYCSQNTHVPPTFGQGTKVEIERTVAAPSVFIFPPSDEQLKSGTASVVCLLNNFYPREAKVQWKVDNALQSGNSQESVTEQDSKDSTYSLSSTLTLSKADYEKHKVYACEVTHQGLSSPVTKSFNRGEC
210 % (control = 100) | 66 % (control = 100) | GpH7-A5/GpH7-B3 variant S267_06M/GpL16-k0 (antibody, human IgG1, kappa, IgG1, anti-glypican-3; also called He Ab) heavy 1: not shown heavy 2: not shown light: DIVMTQSPLSLPVTPGEPASISCQASESLVHSNRNTYLHWYLQKPGQSPQLLIYKVSNRFSGVPDRFSGSGSGTDFTLKISRVEAEDVGVYYCSQNTHVPPTFGQGTKVEIERTVAAPSVFIFPPSDEQLKSGTASVVCLLNNFYPREAKVQWKVDNALQSGNSQESVTEQDSKDSTYSLSSTLTLSKADYEKHKVYACEVTHQGLSSPVTKSFNRGEC
192 % (control = 100) | 25.2 % (control = 100) | GpH7-A5/GpH7-B3 variant S267_07I/GpL16-k0 (antibody, human IgG1, kappa, IgG1, anti-glypican-3; also called He Ab) heavy 1: not shown heavy 2: not shown light: DIVMTQSPLSLPVTPGEPASISCQASESLVHSNRNTYLHWYLQKPGQSPQLLIYKVSNRFSGVPDRFSGSGSGTDFTLKISRVEAEDVGVYYCSQNTHVPPTFGQGTKVEIERTVAAPSVFIFPPSDEQLKSGTASVVCLLNNFYPREAKVQWKVDNALQSGNSQESVTEQDSKDSTYSLSSTLTLSKADYEKHKVYACEVTHQGLSSPVTKSFNRGEC
140 % (control = 100) | 95.3 % (control = 100) | GpH7-A5/GpH7-B3 variant S239_08L/GpL16-k0 (antibody, human IgG1, kappa, IgG1, anti-glypican-3; also called He Ab) heavy 1: not shown heavy 2: not shown light: DIVMTQSPLSLPVTPGEPASISCQASESLVHSNRNTYLHWYLQKPGQSPQLLIYKVSNRFSGVPDRFSGSGSGTDFTLKISRVEAEDVGVYYCSQNTHVPPTFGQGTKVEIERTVAAPSVFIFPPSDEQLKSGTASVVCLLNNFYPREAKVQWKVDNALQSGNSQESVTEQDSKDSTYSLSSTLTLSKADYEKHKVYACEVTHQGLSSPVTKSFNRGEC
105 % (control = 100) | 53.8 % (control = 100) | GpH7-A5/GpH7-B3 variant S267_01G/GpL16-k0 (antibody, human IgG1, kappa, IgG1, anti-glypican-3; also called He Ab) heavy 1: not shown heavy 2: not shown light: DIVMTQSPLSLPVTPGEPASISCQASESLVHSNRNTYLHWYLQKPGQSPQLLIYKVSNRFSGVPDRFSGSGSGTDFTLKISRVEAEDVGVYYCSQNTHVPPTFGQGTKVEIERTVAAPSVFIFPPSDEQLKSGTASVVCLLNNFYPREAKVQWKVDNALQSGNSQESVTEQDSKDSTYSLSSTLTLSKADYEKHKVYACEVTHQGLSSPVTKSFNRGEC
192 % (control = 100) | 30.8 % (control = 100) | GpH7-A5/GpH7-B3 variant S267_03V/GpL16-k0 (antibody, human IgG1, kappa, IgG1, anti-glypican-3; also called He Ab) heavy 1: not shown heavy 2: not shown light: DIVMTQSPLSLPVTPGEPASISCQASESLVHSNRNTYLHWYLQKPGQSPQLLIYKVSNRFSGVPDRFSGSGSGTDFTLKISRVEAEDVGVYYCSQNTHVPPTFGQGTKVEIERTVAAPSVFIFPPSDEQLKSGTASVVCLLNNFYPREAKVQWKVDNALQSGNSQESVTEQDSKDSTYSLSSTLTLSKADYEKHKVYACEVTHQGLSSPVTKSFNRGEC
109 % (control = 100) | 19.5 % (control = 100) | GpH7-A5/GpH7-B3 variant S267_08L/GpL16-k0 (antibody, human IgG1, kappa, IgG1, anti-glypican-3; also called He Ab) heavy 1: not shown heavy 2: not shown light: DIVMTQSPLSLPVTPGEPASISCQASESLVHSNRNTYLHWYLQKPGQSPQLLIYKVSNRFSGVPDRFSGSGSGTDFTLKISRVEAEDVGVYYCSQNTHVPPTFGQGTKVEIERTVAAPSVFIFPPSDEQLKSGTASVVCLLNNFYPREAKVQWKVDNALQSGNSQESVTEQDSKDSTYSLSSTLTLSKADYEKHKVYACEVTHQGLSSPVTKSFNRGEC
